Measured values reported in US20210190796A1 (AB STUDIO, published 2021).

T1: (EAR)3 peptide
T1 construct: Synthetic substrate peptide coated on the ELISA plate
T1 peptide: EAREAREAR

B1: 3D6-D (antibody, V domains shown)
VH: EVKLVESGGGLVKPGASLKLSCAASGFTFSNYGMSWVRQNSDKRLEWVASIRSGGGRTYYSDNVKGRFTISRENAKNTLYLQMSSLKSEDTALYYCVRYDHYSGSSDYWGQGTTVTVSS
VL: not shown
notes: It was detected with anti-human IgG; also called 3D6-D antibody; 3D6-D catabody
B2: 3D6 (antibody, V domains shown)
VH: EVKLVESGGGLVKPGASLKLSCAASGFTFSNYGMSWVRQNSDKRLEWVASIRSGGGRTYYSDNVKGRFTISRENAKNTLYLQMSSLKSEDTALYYCVRYDHYSGSSDYWGQGTTVTVSS
VL: not shown
notes: Non-catalytic anti-Aβ antibody, the parental murine antibody of bapineuzumab; An IgG1 isotype control and anti-human IgG detection were used; also called 3D6-Y; wild type 3D6 antibody
B3: hu3D6-D H1L1 (antibody, V domains shown)
VH: EVQLVESGGGLVQPGGSLRLSCAASGFTFSNYGMSWVRQAPDKRLEWVASIRSGGGRTYYSDNVKGRFTISRDNAKNTLYLQMNSLRAEDTALYYCVRYDHYSGSSDYWGQGTLVTVSS
VL: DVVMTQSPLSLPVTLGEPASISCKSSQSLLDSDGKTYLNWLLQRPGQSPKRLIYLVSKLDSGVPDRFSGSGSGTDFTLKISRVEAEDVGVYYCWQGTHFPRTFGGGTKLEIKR
notes: It was detected with goat anti-human IgG; also called hu3D6-D HIL1; humanized 3D6-D catabody
B4: bapineuzumab (antibody, V domains shown)
VH: EVQLLESGGGLVQPGGSLRLSCAASGFTFSNYGMSWVRQAPGKGLEWVASIRSGGGRTYYSDNVKGRFTISRDNAKNSLYLQMNSLRAEDTALYYCVRYDHYSGSSDYWGQGTLVTVSS
VL: YVVMTQSPLSLPVTPGEPASISCKSSQSLLDSDGKTYLNWLLQKPGQSPQRLIYLVSKLDSGVPDRFSGSGSGTDFTLKISRVEAEDVGVYYCWQGTHFPRTFGQGTKVEIKR
notes: also called humanized 3D6-Y; hu3D6-Y
B5: hu3D6-D H1L2 (antibody, V domains shown)
VH: EVQLVESGGGLVQPGGSLRLSCAASGFTFSNYGMSWVRQAPDKRLEWVASIRSGGGRTYYSDNVKGRFTISRDNAKNTLYLQMNSLRAEDTALYYCVRYDHYSGSSDYWGQGTLVTVSS
VL: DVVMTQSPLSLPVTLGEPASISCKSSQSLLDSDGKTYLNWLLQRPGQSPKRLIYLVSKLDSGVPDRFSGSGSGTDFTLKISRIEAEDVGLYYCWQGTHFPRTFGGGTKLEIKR
notes: It was detected with goat anti-human IgG; also called hu3D6-D HIL2; hu3D6-D HISL2

How the values were obtained:
(EAR)3 peptide = target: T1, (EAR)3 peptide; assay: ELISA, (EAR)3 peptide coated, antibody at 100 µg/mL
Aβ (1-42) peptide [1] = target: T2, Aβ (1-42) peptide (UniProt P05067 672-713); assay: ELISA, Aβ(1-42) coated
T2 construct: domain: Aβ (1-42) peptide; also called Aβ42
T2 sequence (P05067 672-713 limits assumed): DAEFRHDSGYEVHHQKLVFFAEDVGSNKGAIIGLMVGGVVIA
Protocol: (§1) Briefly, an ELISA plate was coated with an Aβ (1-42) peptide at 1 μg/mL in a coating buffer (0.2M sodium carbonate-bicarbonate buffer, pH 9.4), 100 μL/well at 4° C. overnight. The Aβ peptide was removed and the plate was washed three times with 250 μL/well of a washing buffer (PBST). The plate was then blocked with 200 μL/well of a blocking buffer (1% BSA in PBST) for 1 hour at room temperature, and washed two times with 250 μL/well of the washing buffer. To each well of the plate was added 100 μL of the antibody sample (3× serial dilution in the range of 3 ng/mL to 20 μg/mL) and incubated at room temperature for 1 hour. […] The plate was then washed three times with 250 μL/well of the washing buffer. HRP substrate (Amplex Red and H₂O₂) was prepared freshly with a developing buffer (3.6 mM Na₂HPO₄, 1.4 mM NaH₂PO₄, at pH7.2), and 100 μL of the HRP substrate was added to each well and incubated for 1-60 minutes. Signals were subsequently detected using a plate reader (Excitation wavelength=530 nm, Emission wavelength=590 nm, and cutoff wavelength =570 nm).

Aβ (1-42) peptide [2] = target: T2, Aβ (1-42) peptide; assay: ELISA, Aβ(1-42) coated at 1 µg/mL, antibody titrated 3 ng/mL to 20 µg/mL
Protocol: as §1

| Binder | binding result ((EAR)3 peptide) | binding result (Aβ (1-42) peptide [1]) | also measured |
| --- | --- | --- | --- |
| B1 | binds |  |  |
| B2 | binds |  |  |
| B3 |  | binds |  |
| B4 |  |  | binding result (Aβ (1-42) peptide [2]): binds |
| B5 |  | binds |  |
